Columns and labels:
[1] = target: plant virus-based immunosorbent nanoparticle (VIN): assembled turnip vein clearing virus (TVCV) virion of coat protein Fc-affinity ligand fusion (CP-FcAL) (turnip vein clearing virus | S. aureus) (UniProt Q88922); assay: co-sedimentation; affinity sedimentation: purified VIN mixed in free suspension with a pre-purified target; VIN-target complex pelleted (12,000 x g, 10 min for hIgG; 20,000 x g, 20 min for the Fc-fusions); eluted with 0.1 M glycine-HCl pH 2.5; SDS-PAGE and Western blot
[2] = target: plant virus-based immunosorbent nanoparticle (VIN): assembled turnip vein clearing virus (TVCV) virion of coat protein Fc-affinity ligand fusion (CP-FcAL) (turnip vein clearing virus | S. aureus) (UniProt Q88922); assay: pull-down; magnetic separation: VIN covalently coupled to superparamagnetic particles (VIN-MP), hIgG in PBS; eluted with 0.2 M glycine buffer pH 2.5

**Q.** Which recovery of the feed hIgG [1] does the source give for “human immunoglobulin G (hIgG) (antibody)” here?
**A.** The recovery of the feed hIgG was 95%.

**Q.** What about the binding capacity per mass of magnetic particle (µg hIgG/mg MP) [2] of the same substance?
**A.** Its binding capacity per mass of magnetic particle (µg hIgG/mg MP) is greater than 1000.

**Q.** What about the hIgG binding/elution load per mass of VIN (mg hIgG/mg VIN) [2] of the same substance?
**A.** The hIgG binding/elution load per mass of VIN (mg hIgG/mg VIN) was 0.3.

**Q.** And the hIgG elution recovery per mass of VIN, VIN-MP relative to uncoupled VIN [2]?
**A.** Its hIgG elution recovery per mass of VIN, VIN-MP relative to uncoupled VIN is 35 to 55%.

**Q.** What about the recovery of the feed hIgG [2] of the same substance?
**A.** The recovery of the feed hIgG was 42%.

— PMC9092175
